We go through 14 sequences from the DeepSol protein solubility set.

A short description of the series: soluble on expression in E. coli; label from the status in PepcDB or PDB records.
In the case of “MNLNFSLLDEPIPLRGGTILVLEDVCVFSKIVQYCYQYEEDSELKFFDHKMKTIKESEIMLVTDILGFDVNSSTILKLIHADLESQFNEKPEVKSMIDKLVATITELIVFECLENELDLEYDEITILELIKSLGVKVETQSDTIFEKCLEILQIFKYLTKKKLLIFVNSGAFLTKDEVASLQEYISLTNLTVLFLEPRELYDFPQYILDEDYFLITKNMV”, the “soluble on expression in E. coli” value is given as “not soluble”.
Under “MNLPPDALHENVYAFALARDQVESYCNQCLTSMAELKKCSACRRLAYCSQECQRADWKLHKVECKAIKTHNEVANDSIRLVMRIAGKLSRNEDGEIEAYYIPGVARNFQNLEHHPSSYDADEESFVKEYFQFAIAPHPDRDLIKLIFQKVSINSFVVGNSTGNPIGVGLCIKLSAANHSCKPLTRVCYRNRTAMLVPVSSELPSTLEGACHSYIDELMPRDMRRDTLKKKYKFLCQCDGCLDEDRNARMEAWTCGICVKGWMRNKENGQCELCGWTMSKDHFELCRTAEEAGIAARSRLANDAIPLETKRNLCEKLLDLFQDTLHDHNVHRIPVLRCLYICSLAAQNITAAAKTGGTLLSIMLVYQNTTDPAILFQKYQLAQLFCAAGAKTQATKLLQEIEEPLEKIYTPDSMICRNVYCMILKARNLS” stands “not soluble”; under “MNLQIKHAIFVLGIFLQVQGIKDTSIKIFSSEIKNIDKTPRIETIESTSTVHKVSTMKRIFDLPKLRTKRSALFPAANICPQESLRQILASLQEYYRLRVCQEVVWEAYRIFLDRIPDTEEYQDWVSLCQKETFCLFDIGKNFSNSQEHLDLLQQRIKQRSFPGRKDETASMETLEAPTEAPVVPTDVSRMSLGPFPLPSDDTDLKEILSVTLKDIQKPTTESKTEPIHVSEFSSEEKVEFSISLPNHRFKAELTNSGSPYYQELVGQSQLQLQKIFKKLPGFGEIRVLGFRPKKEEDGSSSTEIQLMAIFKRDHAEAKSPDSHLLSLDSNKIESERIHHGVIEDKQPETYLTATDLKKLIIQLLDGDLSLVEGKIPFGDEVTGTLFRPVTEPDLPKPLADVTEDATLSPELPFVEPRLEAVDREGSELPGMSSKDSSWSPPVSASISRSENLPSFTPSIFSLDAQSPPPLMTTGPTALIPKPTLPTIDYSTIRQLPLESSHWPASSSDRELITSSHDTIRDLDGMDVSDTPALSEISELSGYDSASGQFLEMTTPIPTVRFITTSSETIATKGQELVVFFSLRVANMPFSYDLFNKSSLEYQALEQRFTDLLVPYLRSNLTGFKQLEILSFRNGSVIVNSKVRFAKAVPYNLTQAVRGVLEDLRSTAAQGLNLEIESYSLDIEPADQADPCKLLDCGKFAQCVKNEWTEEAECRCRQGHESHGTLDYQTLNLCPPGKTCVAGREQATPCRPPDHSTNQAQEPGVKKLRQQNKVVKKRNSKLSAIGFEEFEDQDWEGN”, “soluble”.
For the sequence “MNLYRLLKQREADQKPLRVALIGAGKFGSMFLSQVQRTPGMRLVAVADLAPDRARAALTRVGWPAAALNADTIHHAVKTGKVYFSDDVRSVSVDPEVEIVIDATGQAAAGIEHVLTCCEYGKHII”, the “soluble on expression in E. coli” value is reported as “not soluble”.
Consider “MNMLEKIQSQLEHLSKSERKVAEVILASPDNAIHSSIAALALEANVSEPTVNRFCRSMDTRGFPDFKLHLAQSLANGTPYVNRNVNEDDSVESYTGKIFESAMATLDHVRHSLDKSAINRAVDLLTQAKKIAFFGLGSSAAVAHDAMNKFFRFNVPVVYSDDIVLQRMSCMNCSDGDVVVLISHTGRTKNLVELAQLARENDAMVIALTSAGTPLAREATLAITLDVPEDTDIYMPMVSRLAQLTVIDVLATGFTLRRGAKFRDNLKRVKEALKESRFDKQLLNLSDDR”, for which the “soluble on expression in E. coli” value is given as “soluble”.
With “MNNEAVFSARLSSTQHVGLCRLCNSPLVHTFVDLGMSPPCESFVAADAANDVEPFYPLHAFVCDECFLVQLQEYVAPENIFTEYAYFSSFSDSWVAHAKRYCDMVIERFALGQSSFVVELASNDGYLLQHFLTSNIPMLGIEPAVNVAKVAIGKGIPTLTEFFNEALATDMAARGQKADLIIGNNVLAQVPDINDFVAGMKTLLKPEGVITLEFPHIEKLIAENQFDTIYHEHFSYFSLLTIEKMARRHGLKVFDVEEIPTHGGSLRVFFSHEDIRFPREARVDSLLARELNAGLDKIETYTAFAEAVRQTKRNLLSFLIRLKEMRKSICAYGAPGKGNTLLNYCGIGTDFIDFAVDRNPYKHGRLTPGMHIPIRPVSEIPHMKPDYVLILPWNLKNEIVAQMKDIRNWGGKFIVPIPDISIIDPKELVQ”, the “soluble on expression in E. coli” value is recorded as “not soluble”.
In the case of “MNNETSGKETASAPLCSPKLPVEKVQRIAKNDPEYMDTSDDAFVATAFATEFFVQVLTHESLHRQQQQQQQQVPPLPDELTLSYDDISAAIVHSSDGHLQFLNDVIPTTKNLRLLVEENRVRYTTSVMPPNEVYSAYVVNDTAPKPNIVEIDLDNDEDDDEDVTDQE”, the “soluble on expression in E. coli” value is “not soluble”.
With “MNNFLKHNDWARDPAFNHFWRHYDFSNQWIKQHTDASRQVQMQMVQRDNLSTEQCFSDSEEPEVIERLSRCEIYSEIENEESDIEEMSEEMKAFFAKTQEHRQKFSIRGRIEQSTDHRNASAEFIAKREKAKKDYGESATKILAMESTLAMKFESEYSQNPQLWPNIPFRF”, the “soluble on expression in E. coli” value is listed as “not soluble”.
“MNNILSEEVLNVTDFTTSRQLTLWKREDLQSPQLDDVAEEVPVALVYNGISHVVMMASPKDLTHFAMGFSLSEGIIDSPREIYGMDVVPSCNGLEVQIDLSSRRFMGLKARRRALAGRTGCGVCGVEQLNDIGKPVQPLPFSQTFNLGNLDRALKHLNDFQPTGKLTGCTHAAAWVMPSGELAGGHEDVGRHVALDKLLGRRATEGEEWRQGAALVSSRASYEMVQKSAMCGVEILFAVSAATTLAVEVAERCNLTLVGFCKPGRATIYTHPQRLIADLEHHHHHH”: the “soluble on expression in E. coli” value is “not soluble”.
With “MNNLKLDIVEQDDKAIVRVQGDIDAYNSSELKEQLRNFISTTSKKKIVLDLSSVSYMDSAGLGTLVVILKDAKINGKEFILSSLKESISRILKLTHLDKIFKITDTVEEA”, the “soluble on expression in E. coli” value is “soluble”.
For the sequence “MNNLMPAELAPQINAHFNGKFEVELKYRLADREAFWARLSAKSPEVMLEDNLEHDCYFDSPSASLAAQHKSLCIREMQPSGIRLWIVKGPEKDRCEAVNITDANKAKSMLRTLGYQCVLEIKKRRSVYFLGQFHLTLDRLEGLGDFAELAIMTDDEAMLPVYEAQLVALAAELGLNESQREFLSYRQLQQALQQLEHHHHHH”, the “soluble on expression in E. coli” value was “not soluble”.
“MNNNDIIRRLRYTFDFNDDKMIQLFALADQQVTRAEISNWMKKDDDPDFKELYDKELAVFLNGFIIDKRGKKDGQTPVAEKSLNNNIIFRKLKIALNLQDDDILDILELADMRFGKHELSALFRNPDQSQFRPCKDQVLRNFIHGLQLKYRKE”: the “soluble on expression in E. coli” value is “not soluble”.
For “MNNPKPCEWKSNELSRGYIADYKAFNFVDGEGVRCSLYVSGCPFHCEGCYNKAAQSFKYGKPYTKELEDDILKDIGHESVQGLTLLGGEPFLNTATCLSVVKRIRATYGKTKDIWSWTGYTWDEMMQETTDKLELLSLIDVLVDGRFEQKLFDPNLAFRGSSNQRIIDVQKSLAADEVVLYELLEHHHHHH”, the “soluble on expression in E. coli” value is reported as “soluble”.
The entry for “MNNRIIYVVSDSVGETAELVVKAALSQFNGSADDTHVRRIPYVEDIGTINEVISLAKADGGIICFTLVVPEIREYLIAEAEKANVLYYDIIGPLIDKMETAYGLTAKYEPGRVRQLDEDYFKKVEAIEFAVKYDDGRDPRGILKADIVLIGVSRTSKTPLSQYLAHKRLKVANVPIVPEVDPPEELFNVDPKKCIGLKISPDKLNHIRKERLKSLGLNDKAIYANINRIKEELEYFEKIVDRIGCQVVDVSNKAVEETANIIHHLKTKNIAAALEHHHHHH” is “not soluble”.
